Results reported in patent publication US11275076B2, “Systems and methods for assessing blood platelet function” (Medtronic, Inc., priority 2016, dated 2022).

System: fresh whole blood
Assay: drop distance cycle tests (ferromagnetic washer) assessing clot retraction in blood samples
Type: cell-based
Conditions: FIG. 4; for clot retraction (object drop distance over time): compared with fresh whole blood without platelet inhibitor, tests began after assumed clot initiation
Excerpt: Referring now to FIG. 3, a schematic drawing of a predicted trace 100 generated by successive drop distance test cycles of an object (e.g., the ferromagnetic object 32 described above) in blood over time that may be representative of data obtainable by an embodiment of a blood analysis system or apparatus of the present disclosure (e.g., the blood analysis system 20 of FIGS. 1 and 2). For example, and with additional reference to FIGS. 1 and 2, each test cycle includes the object 32 caused to move by the electromagnetic 34 toward the top of the chamber 30 and then allowed to drop; the drop distance of the object 32 is determined or sensed (e.g., an absolute drop distance is determined or sensed once the object 32 is at rest within the blood 40, or is determined or sensed at the end of a predetermined test cycle period). This so-determined drop distance serves as a single data point on the trace 100. The same drop distance test cycle is repeated for the same blood sample 40, at regular or irregular time intervals, over the course of an assessment time period with the result of each successive drop distance test cycle providing an additional data point from which the trace 100 is generated. (i.e., the determined “object drop distance” is plotted relative to the Y-axis at the corresponding point in time over the assessment time period along the X-axis).
As a point of reference, FIG. 4 presents the results of the drop distance cycle tests described above (using a ferromagnetic washer as the object) with three different blood samples. The first blood sample (“FWB”) consisted of fresh whole blood. The second blood sample (“FWB+5 ug/mL Reopro”) consisted of the fresh whole blood of the first sample and the platelet inhibitor Reopro at a concentration of 5 μg/mL. […] As explained in U.S. Pat. No. 8,921,115, clot strength can be another indicator of platelet function, and can be assessed (along with platelet retraction) with some systems and methods of the present disclosure. […]

B1: Reopro: the platelet inhibitor Reopro (antibody, chains of the INN, looked up, V domains shown)
VH: EVQLQQSGTVLARPGASVKMSCEASGYTFTNYWMHWVKQRPGQGLEWIGAIYPGNSDTSYIQKFKGKAKLTAVTSTTSVYMELSSLTNEDSAVYYCTLYDGYYVFAYWGQGTLVTVSA
VL: EIVLTQSPVTLSVTPGDSVSLSCRASRDISNNLHWFQQTSHESPRLLIKYASQSMSGIPSRFSGSGSGTDFTLSINSVETEDFGMYFCQQTNSWPYTFGGGTKLEIK
modifications: Fab
object movement profile, dependence on platelet inhibitor concentration (comparison of 5 μg/mL and 10 μg/mL Reopro in fresh whole blood): dose dependent | clot retraction (object drop distance over time) (fresh whole blood + 5 μg/mL Reopro): first blood sample (with normal platelet function) showed greater clot retraction that the second and third blood samples | clot retraction (object drop distance over time) (fresh whole blood + 10 μg/mL Reopro): first blood sample (with normal platelet function) showed greater clot retraction that the second and third blood samples
